# B1: 5-hydroxytryptamine receptor 2C (Homo sapiens), P28335 (parent)
# chain: MVNLRNAVHSFLVHLIGLLVWQSDISVSPVAAIVTDIFNTSDGGRFKFPDGVQNWPALSIVIIIIMTIGGNILVIMAVSMEKKLHNATNYFLMSLAIADMLVGLLVMPLSLLAILYDYVWPLPRYLCPVWISLDVLFSTASIMHLCAISLDRYVAIRNPIEHSRFNSRTKAIMKIAIVWAISIGVSVPIPVIGLRDEEKVFVNNTTCVLNDPNFVLIGSFVAFFIPLTIMVITYCLTIYVLRRQALMLLHGHTEEPPGLSLDFLKCCKRNTAEEENSANPNQDQNARRRKKKERRPRGTMQAINNERKASKVLGIVFFVFLIMWCPFFITNILSVLCEKSCNQKLMEKLLNVFVWIGYVCSGINPLVYTLFNKIYRRAFSNYLRCNYKVEKKPPVRQIPRVAATALSGRELNVNIYRHTNEPVIEKASDNEPGIEMQVENLELPVNPSSVVSERISSV
# partner: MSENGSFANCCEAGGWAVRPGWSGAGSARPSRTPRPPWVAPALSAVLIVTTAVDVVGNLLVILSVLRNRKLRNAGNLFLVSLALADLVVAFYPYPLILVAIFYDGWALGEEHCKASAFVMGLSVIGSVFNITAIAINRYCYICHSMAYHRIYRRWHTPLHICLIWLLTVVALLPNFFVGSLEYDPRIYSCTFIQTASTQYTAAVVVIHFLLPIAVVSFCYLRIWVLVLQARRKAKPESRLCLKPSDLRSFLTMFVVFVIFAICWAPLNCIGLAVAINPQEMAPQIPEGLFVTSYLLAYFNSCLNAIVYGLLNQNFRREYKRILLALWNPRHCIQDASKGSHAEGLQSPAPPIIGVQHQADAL
# Variants of: B1
# Settings: with mtr1b_human MTNR1B
row,effect of a mutation on the interaction,Variant
1,with no effect,S138N

# From IntAct's records for PubMed 25770211
